Values quoted from earlier work in US20140213534A1, “INTESTINAL HYPERPERMEABILITY AND PREVENTION OF SYSTEMIC DISEASE” (Thomas Jefferson University, priority 2011, published 2014).

Target: ST receptors (Homo sapiens, UniProt P25092)
Conditions: relative to native ST; Currie et al. 1992

ST receptors, sequence (P25092 24-1073): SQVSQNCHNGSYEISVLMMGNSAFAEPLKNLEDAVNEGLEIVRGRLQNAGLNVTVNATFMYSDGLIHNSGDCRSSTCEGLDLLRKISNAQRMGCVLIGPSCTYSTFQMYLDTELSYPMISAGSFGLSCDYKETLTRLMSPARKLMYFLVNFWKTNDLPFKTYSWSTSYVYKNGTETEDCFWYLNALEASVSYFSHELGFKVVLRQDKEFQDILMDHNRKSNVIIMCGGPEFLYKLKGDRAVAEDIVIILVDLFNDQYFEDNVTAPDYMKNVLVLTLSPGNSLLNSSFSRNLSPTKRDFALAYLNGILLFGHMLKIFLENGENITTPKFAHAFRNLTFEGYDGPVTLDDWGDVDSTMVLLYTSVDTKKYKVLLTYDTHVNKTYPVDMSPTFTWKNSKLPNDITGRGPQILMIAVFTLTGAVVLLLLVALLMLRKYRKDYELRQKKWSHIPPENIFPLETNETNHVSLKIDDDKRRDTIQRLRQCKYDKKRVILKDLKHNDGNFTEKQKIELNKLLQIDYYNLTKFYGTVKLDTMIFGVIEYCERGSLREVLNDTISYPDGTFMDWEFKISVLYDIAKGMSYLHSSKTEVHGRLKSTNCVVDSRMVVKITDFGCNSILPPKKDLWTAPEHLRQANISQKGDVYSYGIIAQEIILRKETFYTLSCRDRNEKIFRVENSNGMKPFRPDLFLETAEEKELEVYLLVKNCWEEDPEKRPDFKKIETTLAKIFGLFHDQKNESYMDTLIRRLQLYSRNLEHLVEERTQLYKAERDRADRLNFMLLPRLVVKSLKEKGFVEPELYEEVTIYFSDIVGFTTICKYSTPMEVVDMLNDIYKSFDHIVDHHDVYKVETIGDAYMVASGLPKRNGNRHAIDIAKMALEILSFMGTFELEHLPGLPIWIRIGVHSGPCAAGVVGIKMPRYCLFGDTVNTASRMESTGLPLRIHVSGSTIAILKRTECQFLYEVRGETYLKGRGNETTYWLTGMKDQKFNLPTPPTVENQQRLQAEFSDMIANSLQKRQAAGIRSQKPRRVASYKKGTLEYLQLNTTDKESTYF

## Guanylin: 15 amino acid peptide with about 50% sequence homology to ST, identified in mammalian intestine; endogenous GCC agonist (PNTCEICAYAACTGC; Rattus Norvegious)
  activates guanylate cyclase at a level fold less than native ST: 10- to 100 fold
